System: Escherichia coli TOP10
Test: shrunken log2 fold change of peptide-encoding DNA abundance (4.5 h post-induction vs induction); higher = less antimicrobial activity (less host growth inhibition)
Conditions: time post-induction: 4.5 h; library: site-saturation at positions 5, 18, 19, 20
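Note: peptides expressed intracellularly from a pBAD plasmid library in pooled LB shake-flask culture, induced with 0.3% L-arabinose, DNA abundance read by NGS, three biological replicates, DESeq2 with apeglm shrinkage.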

Sequence	shrunken log2 fold change
RRIRKRPPRLPRPRPRPSENPRP	0.101
RRIRLRPPRLPRPRPRPCLNPRP	-0.0428
RRIRRRPPRLPRPRPRPGFWPRP	0.333
RRIRDRPPRLPRPRPRPAAMPRP	1.32
RRIRLRPPRLPRPRPRPYKFPRP	-0.447
RRIRHRPPRLPRPRPRPHKTPRP	0.00711
RRIRLRPPRLPRPRPRPTNSPRP	-0.355
RRIRMRPPRLPRPRPRPPNDPRP	0.574
RRIRLRPPRLPRPRPRPLWRPRP	0.785
RRIRQRPPRLPRPRPRPQGPPRP	0.189
RRIRYRPPRLPRPRPRPVDYPRP	-0.213
RRIRNRPPRLPRPRPRPRRCPRP	0.291
RRIRIRPPRLPRPRPRPVGKPRP	-0.118
RRIRKRPPRLPRPRPRPWDLPRP	-0.136
RRIRHRPPRLPRPRPRPMVKPRP	-0.0243
RRIRDRPPRLPRPRPRPYVAPRP	-0.0638
RRIRSRPPRLPRPRPRPLFQPRP	-0.126
RRIRNRPPRLPRPRPRPSKFPRP	-0.601
RRIRCRPPRLPRPRPRPNAEPRP	0.118
RRIRNRPPRLPRPRPRPRSVPRP	0.258
RRIRLRPPRLPRPRPRPTFLPRP	-0.153
RRIRFRPPRLPRPRPRPPGIPRP	0.151
RRIRMRPPRLPRPRPRPSCRPRP	0.46
RRIRTRPPRLPRPRPRPANYPRP	-0.145
RRIRLRPPRLPRPRPRPLAAPRP	0.345

Sequence	shrunken log2 fold change
RRIRMRPPRLPRPRPRPTIGPRP	0.277
RRIRRRPPRLPRPRPRPDAWPRP	0.325
RRIRLRPPRLPRPRPRPCHLPRP	0.0143
RRIRRRPPRLPRPRPRPLQRPRP	0.969
RRIRIRPPRLPRPRPRPQNRPRP	-0.386
RRIRPRPPRLPRPRPRPAVVPRP	0.197
RRIRQRPPRLPRPRPRPLLVPRP	-0.295
RRIRVRPPRLPRPRPRPTCTPRP	-0.00861
RRIRRRPPRLPRPRPRPGSKPRP	-0.0919
RRIRPRPPRLPRPRPRPADGPRP	0.297
RRIRERPPRLPRPRPRPLDIPRP	-0.0284
RRIRSRPPRLPRPRPRPNMLPRP	-0.323
RRIRSRPPRLPRPRPRPMIEPRP	-0.0828
RRIRIRPPRLPRPRPRPIMRPRP	0.139
RRIRDRPPRLPRPRPRPLACPRP	0.945
RRIRLRPPRLPRPRPRPGPRPRP	0.693
RRIRFRPPRLPRPRPRPPNLPRP	-0.0642
RRIRCRPPRLPRPRPRPPVEPRP	0.35
RRIRPRPPRLPRPRPRPRVRPRP	0.217
RRIRARPPRLPRPRPRPQKAPRP	0.0481
RRIRYRPPRLPRPRPRPEGRPRP	0.172
RRIRCRPPRLPRPRPRPCRDPRP	-0.142
RRIRGRPPRLPRPRPRPSVHPRP	-0.00458
RRIRQRPPRLPRPRPRPGIYPRP	-0.0206
RRIRRRPPRLPRPRPRPRQSPRP	0.243

Sequence	shrunken log2 fold change
RRIRERPPRLPRPRPRPNPMPRP	-0.211
RRIRWRPPRLPRPRPRPKSDPRP	0.473
RRIRIRPPRLPRPRPRPIPNPRP	-0.0731
RRIRIRPPRLPRPRPRPMWAPRP	-0.0316
RRIRPRPPRLPRPRPRPLGCPRP	0.376
RRIRRRPPRLPRPRPRPMTPPRP	0.749
RRIRLRPPRLPRPRPRPMTPPRP	-0.023
RRIRVRPPRLPRPRPRPFKHPRP	-0.0897
RRIRWRPPRLPRPRPRPTGAPRP	0.337
RRIRTRPPRLPRPRPRPVCLPRP	-0.398
RRIRCRPPRLPRPRPRPVWVPRP	0.195
RRIRLRPPRLPRPRPRPKITPRP	-0.203
RRIRMRPPRLPRPRPRPPPDPRP	1.9
RRIRRRPPRLPRPRPRPENIPRP	-0.468
RRIRERPPRLPRPRPRPIRAPRP	0.0262
RRIRHRPPRLPRPRPRPLLNPRP	-0.443
RRIRPRPPRLPRPRPRPQAEPRP	0.113
RRIRDRPPRLPRPRPRPVAGPRP	0.851
RRIRCRPPRLPRPRPRPYNFPRP	-0.497
RRIRVRPPRLPRPRPRPANLPRP	-0.163
RRIRDRPPRLPRPRPRPNPCPRP	-0.328
RRIRYRPPRLPRPRPRPRVPPRP	-0.0432
RRIRDRPPRLPRPRPRPDYAPRP	0.016
RRIRRRPPRLPRPRPRPPHIPRP	0.655
RRIRRRPPRLPRPRPRPFPHPRP	0.292

Sequence	shrunken log2 fold change
RRIRARPPRLPRPRPRPWQLPRP	-0.106
RRIRFRPPRLPRPRPRPQLGPRP	0.1
RRIRARPPRLPRPRPRPGSCPRP	0.32
RRIRERPPRLPRPRPRPLRVPRP	0.269
RRIRSRPPRLPRPRPRPELLPRP	-0.111
RRIRTRPPRLPRPRPRPRKQPRP	0.0743
RRIRDRPPRLPRPRPRPYMQPRP	-0.0171
RRIRERPPRLPRPRPRPYVYPRP	-0.296
RRIRHRPPRLPRPRPRPDGRPRP	0.172
RRIRWRPPRLPRPRPRPFHEPRP	-0.0657
RRIRERPPRLPRPRPRPDQGPRP	0.0476
RRIRHRPPRLPRPRPRPEEIPRP	0.0207
RRIRWRPPRLPRPRPRPQLWPRP	1.02
RRIRERPPRLPRPRPRPKPLPRP	0.104
RRIRKRPPRLPRPRPRPEIQPRP	-0.0762
RRIRRRPPRLPRPRPRPDFIPRP	0.0171
RRIRDRPPRLPRPRPRPMDIPRP	0.0403
RRIRPRPPRLPRPRPRPHKDPRP	-0.339
RRIRPRPPRLPRPRPRPYHTPRP	-1.66
RRIRARPPRLPRPRPRPMRQPRP	0.829
RRIRCRPPRLPRPRPRPEYNPRP	-0.243
RRIRVRPPRLPRPRPRPTAPPRP	0.175
RRIRRRPPRLPRPRPRPGNQPRP	0.0401
RRIRCRPPRLPRPRPRPFNEPRP	-0.799
RRIRPRPPRLPRPRPRPDKIPRP	-0.184

Sequence	shrunken log2 fold change
RRIRGRPPRLPRPRPRPAIKPRP	0.534
RRIRWRPPRLPRPRPRPVICPRP	-0.151
RRIRQRPPRLPRPRPRPEGYPRP	-0.0294
RRIRPRPPRLPRPRPRPDFSPRP	0.0658
RRIRARPPRLPRPRPRPMPQPRP	0.378
RRIRMRPPRLPRPRPRPAHYPRP	-0.248
RRIRVRPPRLPRPRPRPQNSPRP	-0.802
RRIRLRPPRLPRPRPRPPMGPRP	0.194
RRIRLRPPRLPRPRPRPFTPPRP	-0.265
RRIRTRPPRLPRPRPRPLDIPRP	-1.22
RRIRVRPPRLPRPRPRPCHTPRP	-0.0202
RRIRGRPPRLPRPRPRPLSPPRP	0.435
RRIRSRPPRLPRPRPRPDDTPRP	-0.144
RRIRPRPPRLPRPRPRPFLWPRP	0.0275
RRIRKRPPRLPRPRPRPGHHPRP	0.228
RRIRRRPPRLPRPRPRPCPNPRP	-0.207
RRIRNRPPRLPRPRPRPAGCPRP	0.00181
RRIRRRPPRLPRPRPRPTRYPRP	0.337
RRIRDRPPRLPRPRPRPLDFPRP	0.0675
RRIRVRPPRLPRPRPRPTYYPRP	-0.315
RRIRHRPPRLPRPRPRPQDGPRP	-0.0342
RRIRWRPPRLPRPRPRPEFPPRP	0.0195
RRIRHRPPRLPRPRPRPPTGPRP	0.03
RRIRERPPRLPRPRPRPKRLPRP	0.0323
RRIRTRPPRLPRPRPRPIVRPRP	-0.00141

Sequence	shrunken log2 fold change
RRIRFRPPRLPRPRPRPGCIPRP	-0.241
RRIRPRPPRLPRPRPRPDCKPRP	-0.133
RRIRVRPPRLPRPRPRPYMEPRP	-0.16
RRIRLRPPRLPRPRPRPMRSPRP	0.0143
RRIRDRPPRLPRPRPRPDEEPRP	-0.00164
RRIRIRPPRLPRPRPRPYLDPRP	-1.02
RRIRCRPPRLPRPRPRPYSQPRP	-0.781
RRIRPRPPRLPRPRPRPNNTPRP	-0.312
RRIRQRPPRLPRPRPRPCWIPRP	-0.209
RRIRSRPPRLPRPRPRPLVVPRP	0.268
RRIRCRPPRLPRPRPRPNYFPRP	-0.763
RRIRARPPRLPRPRPRPCYDPRP	-0.56
RRIRCRPPRLPRPRPRPFSRPRP	-0.332
RRIRSRPPRLPRPRPRPEWIPRP	0.021
RRIRARPPRLPRPRPRPNQPPRP	0.0397
RRIRGRPPRLPRPRPRPFTKPRP	-0.282
RRIRFRPPRLPRPRPRPWDFPRP	-0.0975
RRIRTRPPRLPRPRPRPPWYPRP	-0.166
RRIRGRPPRLPRPRPRPILLPRP	-0.0679
RRIRVRPPRLPRPRPRPACHPRP	0.0396
RRIRSRPPRLPRPRPRPYLVPRP	-0.123
RRIRHRPPRLPRPRPRPRLRPRP	0.207
RRIRRRPPRLPRPRPRPKKWPRP	0.114
RRIRYRPPRLPRPRPRPQNNPRP	-0.86
RRIRCRPPRLPRPRPRPSHAPRP	-0.375

From the supplement of paper PMC9112550, “Optimization of the antimicrobial peptide Bac7 by deep mutational scanning” (BMC Biology, 2022)
